Experimental data as given in the supplement of paper PMC10567573.

B1: SOAT2 (parent)
chain: SLGKQKVFIIRKSLLDELMEVQHF

Variants of: B1
Assay: protein stability index of a GFP-peptide fusion (GPS, HEK-293T) (PSI 1-6); higher = more stable
Details: c terminus: a fixed tail appended
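Note: lentivirally expressed fusions sorted by FACS into six bins by GFP to DsRed ratio, PSI derived from sequencing read proportions per bin multiplied by bin number.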

| Variant | protein stability index |
| --- | --- |
| SLGKQKVFIIRKSLLDEFMEVQHF [L18F] | 1.41 |
| SLGKQKVFIIRKSLLDEHMEVQHF [L18H] | 1.85 |
| SLGKQKVFIIRKSLLDEMMEVQHF [L18M] | 1.7 |
| SLGKQKVFIIRKSLLDERMEVQHF [L18R] | 1.98 |
| SLGKQKVFIIRKSLLDEAMEVQHF [L18A] | 1.46 |
| SLGKQKVFIIRKSLLDEQMEVQHF [L18Q] | 2.21 |
| SLGKQKVFIIRKSLLDEVMEVQHF [L18V] | 2.5 |
| SLGKQKVFIIRKSLLDENMEVQHF [L18N] | 2.54 |
| SLGKQKVFIIRKSLLDEDMEVQHF [L18D] | 2.01 |
| SLGKQKVFIIRKSLLDEGMEVQHF [L18G] | 2.62 |
| SLGKQKVFIIRKSLLDESMEVQHF [L18S] | 1.25 |
| SLGKQKVFIIRKSLLDEEMEVQHF [L18E] | 1.8 |
| SLGKQKVFIIRKSLLDECMEVQHF [L18C] | 1.95 |
| SLGKQKVFIIRKSLLDETMEVQHF [L18T] | 1.31 |
| SLGKQKVFIIRKSLLDEYMEVQHF [L18Y] | 2.46 |
| SLGKQKVFIIRKSLLDEKMEVQHF [L18K] | 2.11 |
| SLGKQKVFIIRKSLIDELMEVQHF [L15I] | 2.35 |
| SLGKQKVFIIRKSLTDELMEVQHF [L15T] | 1.54 |
| SLGKQKVFIIRKSLNDELMEVQHF [L15N] | 1.88 |
| SLGKQKVFIIRKSLHDELMEVQHF [L15H] | 1.78 |
| SLGKQKVFIIRKSLMDELMEVQHF [L15M] | 2.37 |
| SLGKQKVFIIRKSLVDELMEVQHF [L15V] | 1.78 |
| SLGKQKVFIIRKSLYDELMEVQHF [L15Y] | 1.52 |
| SLGKQKVFIIRKSLADELMEVQHF [L15A] | 1.6 |

| Variant | protein stability index |
| --- | --- |
| SLGKQKVFIIRKSLWDELMEVQHF [L15W] | 2.68 |
| SLGKQKVFIIRKSLPDELMEVQHF [L15P] | 1.56 |
| SLGKQKVFIIRKSLSDELMEVQHF [L15S] | 2.23 |
| SLGKQKVFIIRKSLRDELMEVQHF [L15R] | 2.41 |
| SLGKQKVFIIRKSLDDELMEVQHF [L15D] | 2.38 |
| SLGKQKVFIIRKSLQDELMEVQHF [L15Q] | 1.8 |
| SLGKQKVFIIRKSLGDELMEVQHF [L15G] | 2.5 |
| SLGKQKVFIIRKSLEDELMEVQHF [L15E] | 2.29 |
| SLGKQKVFIIRKSLCDELMEVQHF [L15C] | 2.08 |
| SLGKQKVFIIRKSLFDELMEVQHF [L15F] | 3.01 |
| SLGKQKVFIIRKSLKDELMEVQHF [L15K] | 3.07 |
| SLGKQKVFPIRKSLLDELMEVQHF [I9P] | 2.1 |
| SLGKQKVFSIRKSLLDELMEVQHF [I9S] | 2.15 |
| SLGKQKVFGIRKSLLDELMEVQHF [I9G] | 1.79 |
| SLGKQKVFKIRKSLLDELMEVQHF [I9K] | 1.58 |
| SLGKQKVFAIRKSLLDELMEVQHF [I9A] | 1.99 |
| SLGKQKVFCIRKSLLDELMEVQHF [I9C] | 1.76 |
| SLGKQKVFWIRKSLLDELMEVQHF [I9W] | 3.62 |
| SLGKQKVFNIRKSLLDELMEVQHF [I9N] | 2.02 |
| SLGKQKVFMIRKSLLDELMEVQHF [I9M] | 2.21 |
| SLGKQKVFEIRKSLLDELMEVQHF [I9E] | 1.76 |
| SLGKQKVFYIRKSLLDELMEVQHF [I9Y] | 2.85 |
| SLGKQKVFQIRKSLLDELMEVQHF [I9Q] | 1.89 |
| SLGKQKVFTIRKSLLDELMEVQHF [I9T] | 1.84 |

| Variant | protein stability index |
| --- | --- |
| SLGKQKVFFIRKSLLDELMEVQHF [I9F] | 2.41 |
| SLGKQKVFRIRKSLLDELMEVQHF [I9R] | 1.8 |
| SLGKQKVFHIRKSLLDELMEVQHF [I9H] | 2.22 |
| SLGKQKVFDIRKSLLDELMEVQHF [I9D] | 2.18 |
| SLGKQKVFLIRKSLLDELMEVQHF [I9L] | 1.21 |
| SLGKQKVFVIRKSLLDELMEVQHF [I9V] | 2.84 |
| SLGKQKVTIIRKSLLDELMEVQHF [F8T] | 1.32 |
| SLGKQKVWIIRKSLLDELMEVQHF [F8W] | 2.79 |
| SLGKQKVYIIRKSLLDELMEVQHF [F8Y] | 3.07 |
| SLGKQKVVIIRKSLLDELMEVQHF [F8V] | 1.6 |
| SLGKQKVFIIRASLLDELMEVQHF [K12A] | 2.44 |
| SLGKQKVFIIRLSLLDELMEVQHF [K12L] | 2.18 |
| SLGKQKVFIIRVSLLDELMEVQHF [K12V] | 3.02 |
| SLGKQKVFIIRPSLLDELMEVQHF [K12P] | 1.62 |
| SLGKQKVFIIRSSLLDELMEVQHF [K12S] | 1.23 |
| SLGKQKVFIIRRSLLDELMEVQHF [K12R] | 2.75 |
| SLGKQKVFIIRISLLDELMEVQHF [K12I] | 2.77 |
| SLGKQKVFIIRTSLLDELMEVQHF [K12T] | 3.09 |
| SLGKQKVFIIRHSLLDELMEVQHF [K12H] | 3.61 |
| SLGKQKVFIIRESLLDELMEVQHF [K12E] | 2.99 |
| SLGKQKVFIIRWSLLDELMEVQHF [K12W] | 3.49 |
| SLGKQKVFIIRMSLLDELMEVQHF [K12M] | 2.13 |
| SLGKQKVFIIRFSLLDELMEVQHF [K12F] | 3.49 |
| SLGKQKVFIIRDSLLDELMEVQHF [K12D] | 3.43 |

| Variant | protein stability index |
| --- | --- |
| SLGKQKVFIIRNSLLDELMEVQHF [K12N] | 2.32 |
| SLGKQKVFIIRQSLLDELMEVQHF [K12Q] | 2.96 |
| SLGKQKVFIIRKSLLDELAEVQHF [M19A] | 3.02 |
| SLGKQKVFIIRKSLLDELCEVQHF [M19C] | 2.15 |
| SLGKQKVFIIGKSLLDELMEVQHF [R11G] | 3.02 |
| SLGKQKVFIIYKSLLDELMEVQHF [R11Y] | 3.21 |
| SLGKQKVFIIIKSLLDELMEVQHF [R11I] | 2.78 |
| SLGKQKVFIIMKSLLDELMEVQHF [R11M] | 1.53 |
| SLGKQKVFIIKKSLLDELMEVQHF [R11K] | 1.77 |
| SLGKQKVFIIVKSLLDELMEVQHF [R11V] | 2.19 |
| SLGKQKVFIIPKSLLDELMEVQHF [R11P] | 1.78 |
| SLGKQKVFIIDKSLLDELMEVQHF [R11D] | 2.22 |
| SLGKQKVFIITKSLLDELMEVQHF [R11T] | 2.61 |
| SLGKQKVFIICKSLLDELMEVQHF [R11C] | 2.61 |
| SLGKQKVFIIFKSLLDELMEVQHF [R11F] | 1.78 |
| SLGKQKVFIIEKSLLDELMEVQHF [R11E] | 2.99 |
| SLGKQKVFIILKSLLDELMEVQHF [R11L] | 2.96 |
| SLGKQKVFIIQKSLLDELMEVQHF [R11Q] | 2.54 |
| SLGKQKVFIIAKSLLDELMEVQHF [R11A] | 2.83 |
| SLGKQKVFIISKSLLDELMEVQHF [R11S] | 2.11 |
| SLGKQKVFIIWKSLLDELMEVQHF [R11W] | 2.53 |
| SLGKQKVFIIHKSLLDELMEVQHF [R11H] | 2.43 |
